From patent US20140087995A1 (published 2014) come the findings set out here.

The chains are these.
T1: human amylin receptor (amylin 3(a) receptor: human calcitonin receptor co-expressed with RAMP-3) (human, UniProt P30988 25-474; O60896 24-148, limits assumed)
T1 sequence (looked up) 1: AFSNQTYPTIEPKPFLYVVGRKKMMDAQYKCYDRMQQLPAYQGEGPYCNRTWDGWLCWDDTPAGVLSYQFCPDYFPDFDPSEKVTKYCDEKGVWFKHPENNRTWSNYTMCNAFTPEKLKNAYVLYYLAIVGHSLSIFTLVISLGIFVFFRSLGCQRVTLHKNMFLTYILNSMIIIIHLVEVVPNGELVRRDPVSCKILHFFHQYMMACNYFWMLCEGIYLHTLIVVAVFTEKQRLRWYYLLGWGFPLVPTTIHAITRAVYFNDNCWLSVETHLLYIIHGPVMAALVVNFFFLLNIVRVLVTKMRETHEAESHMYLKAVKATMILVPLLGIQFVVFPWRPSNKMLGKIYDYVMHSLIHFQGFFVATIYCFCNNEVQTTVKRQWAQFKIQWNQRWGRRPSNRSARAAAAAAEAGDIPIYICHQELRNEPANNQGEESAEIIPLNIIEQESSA
T1 sequence (looked up) 2: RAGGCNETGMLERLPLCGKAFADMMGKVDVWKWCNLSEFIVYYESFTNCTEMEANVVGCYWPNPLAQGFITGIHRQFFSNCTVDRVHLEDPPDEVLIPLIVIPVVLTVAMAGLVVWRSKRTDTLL

T2: human calcitonin receptor (human, UniProt P30988 25-474)
T2 sequence (looked up): T1 sequence (looked up) 1

B1: N^ε1-[2-[2-[2-[[(4S)-4-carboxy-4-(19-carboxynonadecanoylamino)butanoyl]amino]ethoxy]ethoxy]acetyl]-[Gly14,Arg17,Pro21,Pro27,Pro31]-h-amylin (peptide)
peptide: K([AEEA-γGlu-C20 diacid])CNTATCATQRLAGFLRHSSPNFGAIPSSTPVGSNTY-NH2
modifications: disulfide 2-7; N-terminus assumed
SMILES: CC[C@H](C)[C@H](NC(=O)[C@H](C)NC(=O)CNC(=O)[C@H](Cc1ccccc1)NC(=O)[C@H](CC(N)=O)NC(=O)[C@@H]1CCCN1C(=O)[C@H](CO)NC(=O)[C@H](CO)NC(=O)[C@H](Cc1c[nH]cn1)NC(=O)[C@H](CCCNC(=N)N)NC(=O)[C@H](CC(C)C)NC(=O)[C@H](Cc1ccccc1)NC(=O)CNC(=O)[C@H](C)NC(=O)[C@H](CC(C)C)NC(=O)[C@H](CCCNC(=N)N)NC(=O)[C@H](CCC(N)=O)NC(=O)[C@@H](NC(=O)[C@H](C)NC(=O)[C@@H]1CSSC[C@H](NC(=O)[C@@H](N)CCCCNC(=O)COCCOCCNC(=O)CC[C@H](NC(=O)CCCCCCCCCCCCCCCCCCC(=O)O)C(=O)O)C(=O)N[C@@H](CC(N)=O)C(=O)N[C@@H]([C@@H](C)O)C(=O)N[C@@H](C)C(=O)N[C@@H]([C@@H](C)O)C(=O)N1)[C@@H](C)O)C(=O)N1CCC[C@H]1C(=O)N[C@@H](CO)C(=O)N[C@@H](CO)C(=O)N[C@H](C(=O)N1CCC[C@H]1C(=O)N[C@H](C(=O)NCC(=O)N[C@@H](CO)C(=O)N[C@@H](CC(N)=O)C(=O)N[C@H](C(=O)N[C@@H](Cc1ccc(O)cc1)C(N)=O)[C@@H](C)O)C(C)C)[C@@H](C)O
notes: also called compound 71
B2: N^ε1-[2-[2-[2-[[(4S)-4-carboxy-4-(19-carboxynonadecanoylamino)butanoyl]amino]ethoxy]ethoxy]acetyl]-[His14,Arg17,Pro21,Pro27,Pro31]-h-amylin (peptide)
peptide: K([AEEA-γGlu-C20 diacid])CNTATCATQRLAHFLRHSSPNFGAIPSSTPVGSNTY-NH2
modifications: disulfide 2-7; N-terminus assumed
SMILES: CC[C@H](C)[C@H](NC(=O)[C@H](C)NC(=O)CNC(=O)[C@H](Cc1ccccc1)NC(=O)[C@H](CC(N)=O)NC(=O)[C@@H]1CCCN1C(=O)[C@H](CO)NC(=O)[C@H](CO)NC(=O)[C@H](Cc1c[nH]cn1)NC(=O)[C@H](CCCNC(=N)N)NC(=O)[C@H](CC(C)C)NC(=O)[C@H](Cc1ccccc1)NC(=O)[C@H](Cc1c[nH]cn1)NC(=O)[C@H](C)NC(=O)[C@H](CC(C)C)NC(=O)[C@H](CCCNC(=N)N)NC(=O)[C@H](CCC(N)=O)NC(=O)[C@@H](NC(=O)[C@H](C)NC(=O)[C@@H]1CSSC[C@H](NC(=O)[C@@H](N)CCCCNC(=O)COCCOCCNC(=O)CC[C@H](NC(=O)CCCCCCCCCCCCCCCCCCC(=O)O)C(=O)O)C(=O)N[C@@H](CC(N)=O)C(=O)N[C@@H]([C@@H](C)O)C(=O)N[C@@H](C)C(=O)N[C@@H]([C@@H](C)O)C(=O)N1)[C@@H](C)O)C(=O)N1CCC[C@H]1C(=O)N[C@@H](CO)C(=O)N[C@@H](CO)C(=O)N[C@H](C(=O)N1CCC[C@H]1C(=O)N[C@H](C(=O)NCC(=O)N[C@@H](CO)C(=O)N[C@@H](CC(N)=O)C(=O)N[C@H](C(=O)N[C@@H](Cc1ccc(O)cc1)C(N)=O)[C@@H](C)O)C(C)C)[C@@H](C)O
notes: also called compound 61
B3: N^ε1-[2-[2-[2-[[(4S)-4-carboxy-4-(19-carboxynonadecanoylamino)butanoyl]amino]ethoxy]ethoxy]acetyl]-[Lys14,Arg17,Pro21,Pro27,Pro31]-h-amylin (peptide)
peptide: K([AEEA-γGlu-C20 diacid])CNTATCATQRLAKFLRHSSPNFGAIPSSTPVGSNTY-NH2
modifications: disulfide 2-7; N-terminus assumed
SMILES: CC[C@H](C)[C@H](NC(=O)[C@H](C)NC(=O)CNC(=O)[C@H](Cc1ccccc1)NC(=O)[C@H](CC(N)=O)NC(=O)[C@@H]1CCCN1C(=O)[C@H](CO)NC(=O)[C@H](CO)NC(=O)[C@H](Cc1c[nH]cn1)NC(=O)[C@H](CCCNC(=N)N)NC(=O)[C@H](CC(C)C)NC(=O)[C@H](Cc1ccccc1)NC(=O)[C@H](CCCCN)NC(=O)[C@H](C)NC(=O)[C@H](CC(C)C)NC(=O)[C@H](CCCNC(=N)N)NC(=O)[C@H](CCC(N)=O)NC(=O)[C@@H](NC(=O)[C@H](C)NC(=O)[C@@H]1CSSC[C@H](NC(=O)[C@@H](N)CCCCNC(=O)COCCOCCNC(=O)CC[C@H](NC(=O)CCCCCCCCCCCCCCCCCCC(=O)O)C(=O)O)C(=O)N[C@@H](CC(N)=O)C(=O)N[C@@H]([C@@H](C)O)C(=O)N[C@@H](C)C(=O)N[C@@H]([C@@H](C)O)C(=O)N1)[C@@H](C)O)C(=O)N1CCC[C@H]1C(=O)N[C@@H](CO)C(=O)N[C@@H](CO)C(=O)N[C@H](C(=O)N1CCC[C@H]1C(=O)N[C@H](C(=O)NCC(=O)N[C@@H](CO)C(=O)N[C@@H](CC(N)=O)C(=O)N[C@H](C(=O)N[C@@H](Cc1ccc(O)cc1)C(N)=O)[C@@H](C)O)C(C)C)[C@@H](C)O
notes: also called compound 74
B4: N^ε1-[2-[2-[2-[[(4S)-4-carboxy-4-(19-carboxynonadecanoylamino)butanoyl]amino]ethoxy]ethoxy]acetyl]-[His14,Arg17,Pro21,Pro27,His34]-h-amylin (peptide)
peptide: K([AEEA-γGlu-C20 diacid])CNTATCATQRLAHFLRHSSPNFGAIPSSTNVGHNTY-NH2
modifications: disulfide 2-7; N-terminus assumed
SMILES: CC[C@H](C)[C@H](NC(=O)[C@H](C)NC(=O)CNC(=O)[C@H](Cc1ccccc1)NC(=O)[C@H](CC(N)=O)NC(=O)[C@@H]1CCCN1C(=O)[C@H](CO)NC(=O)[C@H](CO)NC(=O)[C@H](Cc1c[nH]cn1)NC(=O)[C@H](CCCNC(=N)N)NC(=O)[C@H](CC(C)C)NC(=O)[C@H](Cc1ccccc1)NC(=O)[C@H](Cc1c[nH]cn1)NC(=O)[C@H](C)NC(=O)[C@H](CC(C)C)NC(=O)[C@H](CCCNC(=N)N)NC(=O)[C@H](CCC(N)=O)NC(=O)[C@@H](NC(=O)[C@H](C)NC(=O)[C@@H]1CSSC[C@H](NC(=O)[C@@H](N)CCCCNC(=O)COCCOCCNC(=O)CC[C@H](NC(=O)CCCCCCCCCCCCCCCCCCC(=O)O)C(=O)O)C(=O)N[C@@H](CC(N)=O)C(=O)N[C@@H]([C@@H](C)O)C(=O)N[C@@H](C)C(=O)N[C@@H]([C@@H](C)O)C(=O)N1)[C@@H](C)O)C(=O)N1CCC[C@H]1C(=O)N[C@@H](CO)C(=O)N[C@@H](CO)C(=O)N[C@H](C(=O)N[C@@H](CC(N)=O)C(=O)N[C@H](C(=O)NCC(=O)N[C@@H](Cc1c[nH]cn1)C(=O)N[C@@H](CC(N)=O)C(=O)N[C@H](C(=O)N[C@@H](Cc1ccc(O)cc1)C(N)=O)[C@@H](C)O)C(C)C)[C@@H](C)O
notes: also called compound 80
B5: N^ε1-[2-[2-[2-[[(4S)-4-carboxy-4-(19-carboxynonadecanoylamino)butanoyl]amino]ethoxy]ethoxy]acetyl]-[His14,Arg17,Pro21,Pro27,Arg34]-h-amylin (peptide)
peptide: K([AEEA-γGlu-C20 diacid])CNTATCATQRLAHFLRHSSPNFGAIPSSTNVGRNTY-NH2
modifications: disulfide 2-7; N-terminus assumed
SMILES: CC[C@H](C)[C@H](NC(=O)[C@H](C)NC(=O)CNC(=O)[C@H](Cc1ccccc1)NC(=O)[C@H](CC(N)=O)NC(=O)[C@@H]1CCCN1C(=O)[C@H](CO)NC(=O)[C@H](CO)NC(=O)[C@H](Cc1c[nH]cn1)NC(=O)[C@H](CCCNC(=N)N)NC(=O)[C@H](CC(C)C)NC(=O)[C@H](Cc1ccccc1)NC(=O)[C@H](Cc1c[nH]cn1)NC(=O)[C@H](C)NC(=O)[C@H](CC(C)C)NC(=O)[C@H](CCCNC(=N)N)NC(=O)[C@H](CCC(N)=O)NC(=O)[C@@H](NC(=O)[C@H](C)NC(=O)[C@@H]1CSSC[C@H](NC(=O)[C@@H](N)CCCCNC(=O)COCCOCCNC(=O)CC[C@H](NC(=O)CCCCCCCCCCCCCCCCCCC(=O)O)C(=O)O)C(=O)N[C@@H](CC(N)=O)C(=O)N[C@@H]([C@@H](C)O)C(=O)N[C@@H](C)C(=O)N[C@@H]([C@@H](C)O)C(=O)N1)[C@@H](C)O)C(=O)N1CCC[C@H]1C(=O)N[C@@H](CO)C(=O)N[C@@H](CO)C(=O)N[C@H](C(=O)N[C@@H](CC(N)=O)C(=O)N[C@H](C(=O)NCC(=O)N[C@@H](CCCNC(=N)N)C(=O)N[C@@H](CC(N)=O)C(=O)N[C@H](C(=O)N[C@@H](Cc1ccc(O)cc1)C(N)=O)[C@@H](C)O)C(C)C)[C@@H](C)O
notes: also called compound 84
B6: N^ε1-[2-[2-[2-[[(4S)-4-carboxy-4-(19-carboxynonadecanoylamino)butanoyl]amino]ethoxy]ethoxy]acetyl]-[His14,Arg17,Pro21,Pro27,Pro34]-h-amylin (peptide)
peptide: K([AEEA-γGlu-C20 diacid])CNTATCATQRLAHFLRHSSPNFGAIPSSTNVGPNTY-NH2
modifications: disulfide 2-7; N-terminus assumed
SMILES: CC[C@H](C)[C@H](NC(=O)[C@H](C)NC(=O)CNC(=O)[C@H](Cc1ccccc1)NC(=O)[C@H](CC(N)=O)NC(=O)[C@@H]1CCCN1C(=O)[C@H](CO)NC(=O)[C@H](CO)NC(=O)[C@H](Cc1c[nH]cn1)NC(=O)[C@H](CCCNC(=N)N)NC(=O)[C@H](CC(C)C)NC(=O)[C@H](Cc1ccccc1)NC(=O)[C@H](Cc1c[nH]cn1)NC(=O)[C@H](C)NC(=O)[C@H](CC(C)C)NC(=O)[C@H](CCCNC(=N)N)NC(=O)[C@H](CCC(N)=O)NC(=O)[C@@H](NC(=O)[C@H](C)NC(=O)[C@@H]1CSSC[C@H](NC(=O)[C@@H](N)CCCCNC(=O)COCCOCCNC(=O)CC[C@H](NC(=O)CCCCCCCCCCCCCCCCCCC(=O)O)C(=O)O)C(=O)N[C@@H](CC(N)=O)C(=O)N[C@@H]([C@@H](C)O)C(=O)N[C@@H](C)C(=O)N[C@@H]([C@@H](C)O)C(=O)N1)[C@@H](C)O)C(=O)N1CCC[C@H]1C(=O)N[C@@H](CO)C(=O)N[C@@H](CO)C(=O)N[C@H](C(=O)N[C@@H](CC(N)=O)C(=O)N[C@H](C(=O)NCC(=O)N1CCC[C@H]1C(=O)N[C@@H](CC(N)=O)C(=O)N[C@H](C(=O)N[C@@H](Cc1ccc(O)cc1)C(N)=O)[C@@H](C)O)C(C)C)[C@@H](C)O
notes: also called compound 68

Numbered stars: 1 amine (or outer) side, 2 acyl side, 3 side chain; on linkers, the order of the positions; unused ones are H or OH. Bridge positions count the residues as written; N and C are the ends. Side chains are listed from the residue outwards. Ends that are not written are not given here. * marks the point of attachment. C20 diacid = O=C(O)CCCCCCCCCCCCCCCCCCC(=O)*; γGlu = O=C(O)[C@H](CCC(=O)[*:2])N[*:1]; AEEA = NCCOCCOCC(=O)O

The first assay concerns the target T1, human amylin receptor (amylin 3(a) …). The assay can be described thus: cell-based or functional assay.
In the case of B1, the “hAmylin-R funct. EC50” value worked out at 0.056 nM.
In the case of B2, the “hAmylin-R funct. EC50” value was determined as 0.051 nM.
Same read-out and setting: the same measure for B3: 0.666 nM.
With B4, the “hAmylin-R funct. EC50” value turned out to be 0.139 nM.
B5: the “Ratio hCT/hAmylin funct.” value stood at 32.5 and the “hAmylin-R funct. EC50” value is 0.169 nM.
Take B6: the “hAmylin-R funct. EC50” value is 0.054 nM.

The target of a further assay is T2, human calcitonin receptor. The experiment in a line: cell-based or functional assay.
Regarding B1, the “hCTR funct. EC50” value was determined as 0.527 nM.
Same read-out and setting: the same measure for B2: 0.554 nM; for B3: 37.5 nM; for B4: 2.14 nM.
Take B5: the “hCTR funct. EC50” value was found to be 5.49 nM.
On the same count and under the same terms, to B6 belongs 0.932 nM.
